These results are taken from paper doi:10.1101/772699 (bioRxiv, 2019).

Data set [1] concerns the target SAP54 (purified, secreted part) (Aster Yellows-Witches' Broom phytoplasma (Candidatus Phytoplasma asteris strain AY-WB)). Kind of data set: dynamic light scattering.
Data set [2] deals with the molecule itself. Kind of data set: dynamic light scattering.

As a reminder, the stoichiometry N is a count of units in the complex or per binding partner. In data set [1], “SAP54 (purified, secreted part) (natural protein)” returned a stoichiometry N of 2.

B1: K-domain of SEP3 (SEP3^75-178) (domain or fragment, A. thaliana, UniProt O22456-1 75-178, looked up)
chain: YGAPEPNVPSREALAVELSSQQEYLKLKERYDALQRTQRNLLGEDLGPLSTKELESLERQLDSSLKQIRALRTQFMLDQLNDLQSKERMLTETNKTLRLRLADG
Consider B1, for which the “stoichiometry N” value in data set [2] was 4.
